Molecular target: recombinant soluble PRRSV-1 Olot/91 glycoprotein 3 ectodomain (sGP3) (PRRSV-1 (Betaarterivirus europensis), strain Olot/91)
Test: mass photometry; Refeyn MPOne; GP3 at 20 nM in filtered PBS, triplicate; calibrated with BSA, beta-amylase and thyroglobulin

Substance “recombinant soluble PRRSV-1 Olot/91 glycoprotein 3 ectodomain (sGP3) (domain or fragment)” has a stoichiometry N of 2.

Reference: publication PMC13541077
